In general, Km refers to the concentration of substrate that gives half-maximal velocity.

Substrate in the data set: O=[N+]([O-])O
The data set is described as follows: cells, lysate or membranes. Also noted: species or system Nicotiana tabacum. As to conditions: whole roots of 2-day N-starved tobacco plants (wild-type K326 background subtracted); 5–500 μM nitrate; labelled compound (15N).

B1: NtNRT1.1B (Nicotiana tabacum) (protein)
chain: MALPETQQDSKALPDAWDYKGRPALRSSSGGWASGAMILGVEAVERLTTLGIAVNLVTYLTGTMHLGNATAANNVTNFLGTSFMLTLFGGFVADTFLGRYLTIGIFATVQAMGVTILTISTIIPSLRPPKCEQVGSSSCIPANSKQLMVLYIALYMTALGTGGLKSSVSGFGTDQFDDADKKEKGQMIKFFDWFFFFINVGSLGAVTVLVYIQDNLGREWGYGICACAIVIGLVVFLSGTRKYRFKKLVGSPLTQIASVIVAAWKKRHLELLSDSSLLFEIDDIFGEGNKKNKQKLPHSKEYRFLDKAAIKEDHDLESNGTNVVINKWKLATLTDVEEVKLLIRMLPTWATTIMFWTVYAQMTTFSVSQATTMDRHIGTFEIPPASLTVFFVGSILLTVIFYDRVIVPICRRFMNKPHGLTPLQRIFTGLVLSILAMIAAALTEVKRLKVAHLHGLTNDANATIPLSVFWLVPQFLLVGAGEAFTYIGQLDFFLRECPKGMKTMSTGLFLSTLALGFFFSSILVTIVHVVTGTTNPWLADNLNQGRLYDFYWLLAILSVLNLMFFLYFSRKYVYKEKRLAEMGIELEDDGPVCH
notes: full-length untagged ORF (1,785 bp, 594 residues) under CaMV 35S promoter, overexpressed in tobacco K326 (line L1); formerly named NtNRT1.2 (Liu et al., 2018)
B1: the Km stood at 29.05 ± 3.34 µM.

These data come from paper PMC10011135, “Molecular identification and physiological functional analysis of NtNRT1.1B that mediated nitrate long-distance transport and improved plant growth when overexpressed in tobacco” (Frontiers in Plant Science, 2023).
